In the DeepSol protein solubility set:

Assay: soluble on expression in E. coli; label from the status in PepcDB or PDB records

Q: For “SRRLGKSLGINSIPCKFCSYDCVYCQVGRTINKTIERREFYSPEDIFKSVEERIGKLNNEKIDYLTFVADGEPTLDINLSKEVEMLRDFDIPIAIITNSSLIWREDVRNDILNFDLVSFKVDSVDEKIWREINRPHKDLVLDKILEGMIAFRDNYKGELITETMILGSIKYTEESIIKTAEFLKELNPNKCYLNTPIRPPSEKYIKPPKIEVITKILAIFNEIIGKNKIKLLGKFE”, which “soluble on expression in E. coli” value is on record?
A: Its value is “not soluble”.

Q: With “SRTPAKGNGADPIRLPVRSGIRESRLEFHYHYSNFLVYGEAGSGKTKSIGKWLLSEYMRLGFAGFIYDFKDTDYTRTAYNLIKRHRYPHKFYYVSFDRPERSYRFNPLKVVRDRTELIQLMEDVLLALLPKKEQQNEWVAGGLGILRGVAFRFWDEFPEHCTLPHILAFIMTASARQLSLFLQQNLVSEMLAGAYLKAEGSEKTQASYLSTLCNNLATISQNEEIAYVLSGDDFDFNLIDPETPKLFAVSNNFSKNSVYAPVISMLMTISARQFSMQNRVPFVYFLDEMTTVNIKNFETLPSVLREYKAAFILLTQSGAKLENLYGKLDRSSVEANFGNMFLGRTKDVEALKYYPLFFGKEEKERRSRSSGKSGASSSSSVTVSSQKEDIYQGKDFADLEPGEFIGSATRANVSYFKVKLEMYDDRNEEPLPDVRVLEPGELGRNFARILEEVRELFPCE” as the sequence, how does the “soluble on expression in E. coli” value read?
A: Its value is “not soluble”.

Q: With “SSFKREGDDWSQLNVLKKRRVGDLLASYIPEDEALMLRDGRFACAICPHRPVLDTLAMLTAHRAGKKHLSSLKLFYGKKQTGKGTEQNPRQQNELKTESKTEAPLLTQTRIITQNALHRAPHYNSCCRRKHRPEAPAPSVSSPPLPTAEVQLQSAEISKEPEPRERSDAKESAALLASAPMSPTKRRVLNHYLTLRSSGWVPDGRGRWIKDENVEFDSDEEEPPDLPLD” as the sequence, how does the “soluble on expression in E. coli” value read?
A: The value was “soluble”.

Q: Which “soluble on expression in E. coli” value does the source give for “SSGSTVDSTTLCLFDVDGTLTAARQKATADMHEFLSKLKQRVKVGVVGGSDLDKIKEQLGDDVIDRVDYVFAENGLVAYRFGKLHSVQNIQAYLGEDILQEFINFCLNYLSKIKLPKKRGTFIEFRNGMLNVSPIGRSCSQQERIEFFELDKKEKIRETFVSVLKEEFAGKGLAFSIGGQISFDVFPEGWDKRYCLGIVEKDSYQHIHFFGDKTMPGGNDYEIFVDPRTIGHEVKSPEDTQRICRELFFS” here?
A: Its value is “soluble”.

Q: Which “soluble on expression in E. coli” value does the source give for “SSNFSSERIRYAKWFLEHGFNIIPIDPESKKPVLKEWQKYSHEMPSDEEKQRFLKMIEEGYNYAIPGGQKGLVILDFESKEKLKAWIGESALEELCRKTLCTNTVHGGIHIYVLSNDIPPHKINPLFEENGKGIIDLQSYNSYVLGLGSCVNHLHCTTDKCPWKEQNYTTCYTLYNELKEISKVDLKSLLRFLAEKGKRLGITLSKTAKEWLEGKKEEEDTVVEFEELRKELVKRDSGKPVEKIKEEICTKSPPKLIKEIICENKTYADVNIDRSRGDWHVILYLMKHGVTDPDKILELLPRDSKAKENEKWNTQKYFVITLSKAWSVVKKYLEA” here?
A: The value was “soluble”.

Q: For “SSPTMTSSLRLRTLILGKQRWIKPRNFYQFCDKYAIGYENKKNNSLRNHKILRFNDGSVANYRIYEFEIYNFNSDSWKVFDFTPDWDISFTDLSVSLKGYTYWLIRSNGLIQEYYARSLRKMMIKNY”, which “soluble on expression in E. coli” value is on record?
A: Its value is “soluble”.

Q: Which “soluble on expression in E. coli” value does the source give for “SSRFSITYKHDFYGGVEGEVTGGSALLCCPQEDIKSFLSEPVYSRLCASAWALTIECPSDPRTPSGTPGPLGTVPWRWGSLGMGGPLLPTAPTPRERERRGGQPAQRWSAEEGQEGSADGEAEATQELILAVVQEGAEGQCQGQGRKLLLQRGAHDPVTVHRAFKKEVGLGQVQLIPKGGTGVLHPGAGLKLHTHLQLVTGFVVIRRMHACLAQRYCSQPVVQCVFPS” here?
A: Its value is “soluble”.

Q: With “STMPLAELGARLYREKACFSCHSIDGSRLVGPSFKGLYGSTRTFEDGTTAVADENYLRESILQPGAKVVQGYPNVMPASYASLSEREVAALIEFIKQQQ” as the sequence, how does the “soluble on expression in E. coli” value read?
A: Its value is “soluble”.

Q: With “STQDADRTLKRLQLQMDNLESRVALECKEAFAELQTDINELTNHMDGVQIPFLDYRTYAVRVLFPGIEAHPVLKELDTPPNVEKALRLFGQLLHSRAFLLTFIHTLEAQSSFSMRDRGTVASLTMVALQSRLDYATGLLKQLLADLIEKNLESKNHPKLLLRRTESVAEKMLTNWFTFLLHKFLKECAGEPLFLLYCAIKQQMEKGPIDAITGEARYSLSEDKLIRQQIDYKTLTLHCVCPESEGSAQVPVKVLNCDSITQAKDKLLDTVYKGIPYSQRPKAEDMDLEWRQGRMARIILQDEDITTKIECDWKRVNSLAHYQVTDGSLVALVPKQVSAYNMANSFTFTRSLSRYESLLRAASSPDSLRSRAPMLTPDQEAGTKLWHLVRNHDHTDHREGDRGSKMVSEIYLTRLLATKGTLQKFVDDLFETVFSTAHRGSALPLAIKYMFDFLDEQADQRQISDPDVRHTWKSNCLPLRFWVNVIKNPQFVFDIHKNSITDACLSVVAQTFMDSCSTSEHRLGKDSPSNKLLYAKDIPNYKSWVERYYRDIAKMASISDQDMDAYLVEQSRLHANDFNVLSALSELYFYVTKYRQEILTSLDRDASCRKHKLRQKLEQIITLVSSSS” as the sequence, how does the “soluble on expression in E. coli” value read?
A: The value was “soluble”.

Q: With “SWVWNQMFVLEEFSGPEPILVGRLHTDLDPGSKKIKYILSGDGAGTIFQINDITGDIHAIKRLDREEKAEYTLTAQAVDFETNKPLEPPSEFIIKVQDINDNAPEFLNGPYHATVPEMSILGTSVTNVTATDADDPVYGNSAKLVYSILEGQPYFSIEPETAIIKTALPNMDREAKEEYLVVIQAKDMGGHSGGLSGTTTLTVTLTDVNDNPPKFAQSLYHFSVPEDVVLGTAIGRVKANDQDIGENAQSSYDIIDGDGTALFEITSDAQAQDGVIRLRKPLDFETKKSYTLKVEAANIHIDPRFSSRGPFKDTATVKIVVE” as the sequence, how does the “soluble on expression in E. coli” value read?
A: The value was “soluble”.

Q: Which “soluble on expression in E. coli” value does the source give for “SYDSPDYTDESCTFKISLRNFRSILSWELKNHSIVPTHYTLLYTIMSKPEDLKVVKNCANTTRSFCDLTDEWRSTHEAYVTVLEGFSGNTTLFSCSHNFWLAIDMSFEPPEFEIVGFTNHINVMVKFPSIVEEELQFDLSLVIEEQSEGIVKKHKPEIKGNMSGNFTYIIDKLIPNTNYCVSVYLEHSDEQAVIKSPLKCTLLPPGQESEFS” here?
A: Its value is “soluble”.

Q: With “TDINSLRTRLRSGEHAFADTLAFIADGYDYQPQPFRNGDVDNAAGQNEGSCKTLGLALLEGLSDEEALLAFGEHYRSVQATPEGSDHGNIRALIKHGLAGVTFEGEPLKRK” as the sequence, how does the “soluble on expression in E. coli” value read?
A: The value was “not soluble”.

Q: Which “soluble on expression in E. coli” value does the source give for “TEAAAQPHALPADAPDIAPERDLLSKFDGLIAERQKLLDSGVTDPFAIVMEQVKSPTEAVIRGKDTILLGTYNYMGMTFDPDVIAAGKEALEKFGSGTCGSRMLNGTFHDHMEVEQALRDFYGTTGAIVFSTGYMANLGIISTLAGKGEYVILDADSHASIYDGCQQGNAEIVRFRHNSVEDLDKRLGRLPKEPAKLVVLEGVYSMLGDIAPLKEMVAVAKKHGAMVLVDEAHSMGFFGPNGRGVYEAQGLEGQIDFVVGTFSKSVGTVGGFVVSNHPKFEAVRLACRPYIFTASLPPSVVATATTSIRKLMTAHEKRERLWSNARALHGGLKAMGFRLGTETCDSAIVAVMLEDQEQAAMMWQALLDGGLYVNMARPPATPAGTFLLRCSICAEHTPAQIQTVLGMFQAAGRAVGVIGLEHHHHHH” here?
A: The value was “soluble”.

Q: For “TEEDPSSGHGGVALESLSSFLAHSRRAGIYRLHLPDSVLSHFVRAALDYRERQVPFDFAFDSASDAELYCTELVAAALLRADSLLPIRPSISVAGRRVYSLDDLLLLPGTKCMALAN”, which “soluble on expression in E. coli” value is on record?
A: The value was “not soluble”.

Q: With “TITEWSVNMYNHLRGTGEDENILFSPLSIALAMGMMELGA” as the sequence, how does the “soluble on expression in E. coli” value read?
A: Its value is “soluble”.

Q: Which “soluble on expression in E. coli” value does the source give for “TKDFSWNTDFTFSFYRDKWKERDENWSPNPYDMYNAPLRGYYMYLSDGLIQPGEEVSWMPGALPGQVKLKDIDGYAYNED” here?
A: The value was “not soluble”.

Q: For “TKDFTWTTDFNIAFNNNKITSYPQKEEVVGTKIRTVGYSIYEFYMQEWAGVDPVNGDPLWYMDVTDDKGNPTGERTTTNTYSKATKYKLGSALPSATGGLTNTVSWKGVDFSFMFTYGFGGKIYDVYEENLLNDGNKTGYQLITEQADSWTPENTNASNPKFIPNNSNTSNGRSSRYLHNADFIKLKNISLGYSLPKSLIKKNLLQNVRIYVSADNLITWNLDKKFKSYDVELGGVDGLLDGGGTVPLARTFTAGINLTF”, which “soluble on expression in E. coli” value is on record?
A: Its value is “not soluble”.
